T1: TRMT10C (MRPP1);SDR5C1 (MRPP2, HSD17B10) (Homo sapiens;Homo sapiens, UniProt Q7L0Y3;Q99714 40-403;1-261, |)
T1 sequence 1: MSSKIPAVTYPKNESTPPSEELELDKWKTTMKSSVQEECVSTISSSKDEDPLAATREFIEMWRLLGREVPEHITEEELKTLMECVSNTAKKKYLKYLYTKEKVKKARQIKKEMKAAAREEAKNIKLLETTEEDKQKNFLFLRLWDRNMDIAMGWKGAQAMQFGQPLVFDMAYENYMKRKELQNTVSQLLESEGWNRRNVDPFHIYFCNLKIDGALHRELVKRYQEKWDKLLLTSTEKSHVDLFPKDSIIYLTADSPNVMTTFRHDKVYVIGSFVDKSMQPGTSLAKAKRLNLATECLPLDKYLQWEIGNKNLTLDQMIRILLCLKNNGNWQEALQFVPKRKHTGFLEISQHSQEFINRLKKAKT
T1 sequence 2: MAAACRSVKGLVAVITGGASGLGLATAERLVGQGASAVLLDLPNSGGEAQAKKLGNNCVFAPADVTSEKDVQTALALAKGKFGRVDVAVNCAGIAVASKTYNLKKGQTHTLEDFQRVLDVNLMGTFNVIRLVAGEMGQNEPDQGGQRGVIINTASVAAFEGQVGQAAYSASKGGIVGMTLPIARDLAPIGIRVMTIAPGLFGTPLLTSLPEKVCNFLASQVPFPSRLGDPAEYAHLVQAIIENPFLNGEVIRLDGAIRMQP

T2: TRMT10C (MRPP1) (Homo sapiens, UniProt Q7L0Y3 40-403)
T2 sequence: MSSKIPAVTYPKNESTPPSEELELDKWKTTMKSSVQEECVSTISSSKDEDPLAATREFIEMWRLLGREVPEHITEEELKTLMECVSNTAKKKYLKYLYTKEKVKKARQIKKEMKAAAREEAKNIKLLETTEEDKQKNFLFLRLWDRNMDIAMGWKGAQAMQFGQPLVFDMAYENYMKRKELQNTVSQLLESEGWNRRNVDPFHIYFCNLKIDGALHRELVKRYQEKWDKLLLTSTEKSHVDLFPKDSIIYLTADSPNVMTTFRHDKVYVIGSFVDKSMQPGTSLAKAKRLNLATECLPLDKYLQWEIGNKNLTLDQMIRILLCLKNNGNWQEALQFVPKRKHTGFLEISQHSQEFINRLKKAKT

T3: PRORP (MRPP3) (Homo sapiens, UniProt O15091 46-583)
T3 sequence: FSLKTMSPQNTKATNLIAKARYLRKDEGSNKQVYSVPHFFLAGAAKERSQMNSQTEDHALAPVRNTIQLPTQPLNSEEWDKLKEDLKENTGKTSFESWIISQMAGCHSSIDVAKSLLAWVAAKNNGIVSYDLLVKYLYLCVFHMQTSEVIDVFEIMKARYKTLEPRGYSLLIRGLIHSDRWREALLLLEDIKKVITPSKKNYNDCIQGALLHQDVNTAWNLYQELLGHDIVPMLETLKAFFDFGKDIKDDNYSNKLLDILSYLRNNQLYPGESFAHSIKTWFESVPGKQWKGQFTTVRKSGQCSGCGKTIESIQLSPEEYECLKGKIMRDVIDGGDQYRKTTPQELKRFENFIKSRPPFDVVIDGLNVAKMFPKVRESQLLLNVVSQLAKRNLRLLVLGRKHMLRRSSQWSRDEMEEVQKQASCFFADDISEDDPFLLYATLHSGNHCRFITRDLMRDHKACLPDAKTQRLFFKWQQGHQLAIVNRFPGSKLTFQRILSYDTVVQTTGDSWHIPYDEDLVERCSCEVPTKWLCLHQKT

T4: SDR5C1 (MRPP2, HSD17B10) (Homo sapiens, UniProt Q99714 1-261)
T4 sequence: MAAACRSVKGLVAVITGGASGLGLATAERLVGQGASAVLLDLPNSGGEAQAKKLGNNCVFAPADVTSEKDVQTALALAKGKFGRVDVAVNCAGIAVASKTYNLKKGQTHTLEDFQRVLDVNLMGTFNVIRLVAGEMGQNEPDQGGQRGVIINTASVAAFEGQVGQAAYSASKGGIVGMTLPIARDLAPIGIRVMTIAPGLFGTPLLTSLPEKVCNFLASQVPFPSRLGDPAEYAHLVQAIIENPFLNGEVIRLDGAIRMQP

B1: pre-tRNAVal, 3'-biotinylated (structured_RNA)
RNA: UGCACUUGGACGAACCAGAGUGUAGCUUAACACAAAGCACCCAACUUACACUUAGGAGAUUUCAACUUAACUUGACCGCUCUGAGCUAAACCUAGCCCCAAACCCACUCCACCUUA
modifications: splint ligation of synthetic RNA (15 nt 5' flank + tRNA nt 1-8) to transcript of 1610-1702; 3' pCp-biotin adds a C
B2: pre-tRNALys, 3'-biotinylated (structured_RNA)
RNA: ACCCCCUCUAGAGCCCACUGUAAAGCUAACUUAGCAUUAACCUUUUAAGUUAAAGAUUAAGAGAACCAACACCUCUUUACAGUGAAAUGCCCCAAC
modifications: splint ligation of synthetic RNA (15 nt 5' flank + tRNA nt 1-8) to transcript of 8303-8375; 3' pCp-biotin adds a C

How the values were obtained:
[1] = target: T1, TRMT10C (MRPP1);SDR5C1 (MRPP2, HSD17B10); experiment: BLI; no Mg2+; BLI (BLItz, streptavidin sensors): 50 mM Tris-Cl pH 8, 20 mM NaCl, 2 mM DTT, 20 ug/ml BSA, 0.5 U/ul RNase inhibitor, 0.05% Tween-20, with (Lys) or without 4.5 mM MgCl2, 21 C; conditions: protein: recombinant;recombinant; tags: C-terminal myc-His6;N-terminal His6; copies: 1;4; label: 3' biotin (pCp-biotin); tRNA cloverleaf
TRMT10C (MRPP1) [2] = target: T2, TRMT10C (MRPP1); experiment: as above; conditions: protein: recombinant; tags: C-terminal myc-His6; chain copies: 2; label: 3' biotin (pCp-biotin); tRNA cloverleaf
PRORP (MRPP3) [3] = target: T3, PRORP (MRPP3); experiment: as above; conditions: protein: recombinant; tags: C-terminal His6; label: 3' biotin (pCp-biotin); tRNA cloverleaf
SDR5C1 (MRPP2, HSD17B10) [4] = target: T4, SDR5C1 (MRPP2, HSD17B10); experiment: BLI; no Mg2+; up to 1 uM SDR5C1; BLI (BLItz, streptavidin sensors): 50 mM Tris-Cl pH 8, 20 mM NaCl, 2 mM DTT, 20 ug/ml BSA, 0.5 U/ul RNase inhibitor, 0.05% Tween-20, with (Lys) or without 4.5 mM MgCl2, 21 C; conditions: protein: recombinant; tags: N-terminal His6; chain copies: 4; label: 3' biotin (pCp-biotin); tRNA cloverleaf
[5] = target: T1, TRMT10C (MRPP1);SDR5C1 (MRPP2, HSD17B10); experiment: BLI; 4.5 mM Mg2+; BLI (BLItz, streptavidin sensors): 50 mM Tris-Cl pH 8, 20 mM NaCl, 2 mM DTT, 20 ug/ml BSA, 0.5 U/ul RNase inhibitor, 0.05% Tween-20, with (Lys) or without 4.5 mM MgCl2, 21 C; conditions: protein: recombinant;recombinant; tags: C-terminal myc-His6;N-terminal His6; copies: 1;4; label: 3' biotin (pCp-biotin); tRNA cloverleaf
TRMT10C (MRPP1) [6] = target: T2, TRMT10C (MRPP1); experiment: as above; conditions: protein: recombinant; tags: C-terminal myc-His6; chain copies: 2; label: 3' biotin (pCp-biotin); tRNA cloverleaf
PRORP (MRPP3) [7] = target: T3, PRORP (MRPP3); experiment: as above; conditions: protein: recombinant; tags: C-terminal His6; label: 3' biotin (pCp-biotin); tRNA cloverleaf
SDR5C1 (MRPP2, HSD17B10) [8] = target: T4, SDR5C1 (MRPP2, HSD17B10); experiment: BLI; 4.5 mM Mg2+; up to 1 uM SDR5C1; BLI (BLItz, streptavidin sensors): 50 mM Tris-Cl pH 8, 20 mM NaCl, 2 mM DTT, 20 ug/ml BSA, 0.5 U/ul RNase inhibitor, 0.05% Tween-20, with (Lys) or without 4.5 mM MgCl2, 21 C; conditions: protein: recombinant; tags: N-terminal His6; chain copies: 4; label: 3' biotin (pCp-biotin); tRNA cloverleaf

Binder | Kd [1] | Kd (TRMT10C (MRPP1) [2]) | Kd (PRORP (MRPP3) [3]) | binding result (SDR5C1 (MRPP2, HSD17B10) [4]) | Kd [5] | Kd (TRMT10C (MRPP1) [6]) | Kd (PRORP (MRPP3) [7]) | binding result (SDR5C1 (MRPP2, HSD17B10) [8])
B1 | 13 nM | 20 nM | 18 nM | no binding | – | – | – | –
B2 | – | – | – | – | 4 nM | 30 nM | 26 nM | no binding

From paper PMC10602865, “Cleavage kinetics of human mitochondrial RNase P and contribution of its non-nuclease subunits”
